Laboratory results taken from patent publication US20240132603A1 (HARBOUR BIOMED US, published 2024).
Residue numbers refer to the chain shown, from its start. Like-named read-outs stand apart in the source and are kept apart here.

B1: PR005335 (antibody, human IgG1, kappa, V domains shown)
VH: QVQLVQSGGGLVQPGGSLRLSCTASGFTFSYYWLSWVRQAPGKGLEWVANIKQDGSTTYYVDSVKGRFTISRDNAKNSLYLQMNSLRAEDTAVYYCARNWGFDYWGQGTLVTVSS
VL: not shown
notes: fully human, human IgG1 constant region
B2: PR005330 (antibody, human IgG1, kappa)
heavy: not shown
light: DIVMTQAATSVLVTPGESVSISCRSSKSLLYSNGNTYLYWFLQRPGQSPQLLIYRMSNLASGVPDRFSGSGSGTAFTLRISRVEAEDVGVYYCMQHLEYPFTFGGGTKLELKRTVAAPSVFIFPPSDEQLKSGTASVVCLLNNFYPREAKVQWKVDNALQSGNSQESVTEQDSKDSTYSLSSTLTLSKADYEKHKVYACEVTHQGLSSPVTKSFNRGEC
notes: called CCR8 chimeric antibody; human IgG1 constant region
B3: PR005333 (antibody, human IgG1, kappa)
heavy: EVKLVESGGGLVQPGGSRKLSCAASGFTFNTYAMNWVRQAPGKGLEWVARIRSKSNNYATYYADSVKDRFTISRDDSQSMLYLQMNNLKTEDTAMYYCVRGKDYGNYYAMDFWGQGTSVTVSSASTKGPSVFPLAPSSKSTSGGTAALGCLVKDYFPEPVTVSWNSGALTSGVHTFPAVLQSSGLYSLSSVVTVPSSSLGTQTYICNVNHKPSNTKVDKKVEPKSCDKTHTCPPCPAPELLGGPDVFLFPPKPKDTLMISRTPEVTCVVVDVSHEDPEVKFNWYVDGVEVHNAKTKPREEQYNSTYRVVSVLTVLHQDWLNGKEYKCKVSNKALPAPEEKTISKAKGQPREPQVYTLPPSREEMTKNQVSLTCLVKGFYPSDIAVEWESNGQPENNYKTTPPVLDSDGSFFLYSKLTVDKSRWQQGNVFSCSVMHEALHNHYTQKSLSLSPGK
light: B2 light
notes: same VH/VL as PR005330, other heavy chain entry
B4: PR005125 (antibody, human IgG1, kappa)
heavy: not shown
light: DIVMTQSPLSLSVTLGQPASISCRSSQSLVFSNGNTYLNWFQQRPGQSPRRLIYKVSKRDSGVPDRFSGSGSGTDFTLKISRVEAEDVGVYYCMQGTHWITFGQGTRLEIKRTVAAPSVFIFPPSDEQLKSGTASVVCLLNNFYPREAKVQWKVDNALQSGNSQESVTEQDSKDSTYSLSSTLTLSKADYEKHKVYACEVTHQGLSSPVTKSFNRGEC
notes: as for B1
B5: PR005128 (antibody, human IgG1, kappa)
heavy: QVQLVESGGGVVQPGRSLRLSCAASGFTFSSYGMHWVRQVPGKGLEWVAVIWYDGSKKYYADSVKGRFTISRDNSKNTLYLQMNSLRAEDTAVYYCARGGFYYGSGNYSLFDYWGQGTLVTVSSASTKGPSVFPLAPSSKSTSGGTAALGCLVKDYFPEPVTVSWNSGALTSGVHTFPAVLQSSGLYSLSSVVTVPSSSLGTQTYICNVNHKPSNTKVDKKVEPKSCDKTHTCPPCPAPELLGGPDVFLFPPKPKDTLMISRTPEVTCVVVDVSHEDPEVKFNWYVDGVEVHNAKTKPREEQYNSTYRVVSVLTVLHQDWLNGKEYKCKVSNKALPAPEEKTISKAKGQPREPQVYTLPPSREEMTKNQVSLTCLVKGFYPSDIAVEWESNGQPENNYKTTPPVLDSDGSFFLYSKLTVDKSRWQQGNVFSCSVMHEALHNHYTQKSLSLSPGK
light: B4 light
notes: fully human; same VH/VL as PR005125, other heavy chain entry
B6: PR004324 (antibody, human IgG1, kappa, V domains shown)
VH: EVQLVESGGGLVQPKGSLKLSCAASGFTFNTYAMNWVRQAPGKGLEWVARIRSKSNNYATYYADSVKDRFTISRDDSQSMLYLQMNNLKTEDTAMYYCVRGKENGNYYAMDFWGQGTSVTVSA
VL: DIVMTQAAPSVPVTPGESVSISCRSSKSLLHSNAKIYLYWFLQRPGQSPQLLIYRMSNLASGVPDRFSGSGSGTAFTLRISRVEAEDVGVYYCMQHLEYPLTFGAGTKLEIKR
notes: PTM variant of PR004128, IgG1 with DE mutation
B7: PR004333 (antibody, human IgG1, kappa, V domains shown)
VH: EVQLVESGGGLVQPGGSLRLSCAASGFTFNTYAMNWVRQAPGKGLEWVSRIRSKSNNYATYYADSVKDRFTISRDDSKSTLYLQMNSLRAEDTAVYYCVRGKENGNYYAMDFWGQGTTVTVSS
VL: B6 VL with A34G
notes: heavy-chain semi-humanized variant of PR004128, IgG1 with DE mutation
B8: PR004335 (antibody, human IgG1, kappa, V domains shown)
VH: B7 VH with F112Y
VL: B6 VL with A34G
notes: as for B7
B9: PR004345 (antibody, human IgG1, kappa, V domains shown)
VH: B6 VH
VL: DIVMTQSPLSLPVTLGQPASISCRSNKSLLHSNGNTYLYWFQQRPGQSPRLLIYRMSNLASGVPDRFSGSGSGTDFTLKISRVEAEDVGVYYCMQHLEYPLTFGQGTKLEIKR
notes: light-chain semi-humanized variant of PR004128, IgG1 with DE mutation
B10: PR004344 (antibody, human IgG1, kappa, V domains shown)
VH: B6 VH
VL: B9 VL with N26S
notes: as for B9
B11: PR004343 (antibody, human IgG1, kappa, V domains shown)
VH: B6 VH
VL: B9 VL with N26S, N35K, T36I
notes: as for B9
B12: PR004334 (antibody, human IgG1, kappa, V domains shown)
VH: B7 VH with Y32N
VL: B6 VL with A34G
notes: as for B7
B13: PR004336 (antibody, human IgG1, kappa, V domains shown)
VH: B7 VH with R19K, P41S, S49G, R89K, A90T
VL: B6 VL with A34G
notes: as for B7
B14: PR005332 (antibody, human IgG1, kappa)
heavy: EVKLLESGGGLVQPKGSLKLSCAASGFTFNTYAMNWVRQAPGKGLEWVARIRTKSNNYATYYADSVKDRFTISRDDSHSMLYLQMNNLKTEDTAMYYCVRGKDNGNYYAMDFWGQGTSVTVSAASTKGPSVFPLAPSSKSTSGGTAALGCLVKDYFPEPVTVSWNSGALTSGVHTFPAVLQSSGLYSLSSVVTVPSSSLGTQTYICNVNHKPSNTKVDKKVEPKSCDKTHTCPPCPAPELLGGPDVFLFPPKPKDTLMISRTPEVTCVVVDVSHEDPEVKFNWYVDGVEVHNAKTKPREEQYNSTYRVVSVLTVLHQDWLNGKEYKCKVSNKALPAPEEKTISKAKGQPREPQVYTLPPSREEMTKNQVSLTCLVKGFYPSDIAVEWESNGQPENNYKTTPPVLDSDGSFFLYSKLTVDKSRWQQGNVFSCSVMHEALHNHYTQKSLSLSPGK
light: B2 light with T9P, L12P, Y31H, G69S, A75D, G105A, L111I
notes: same VH/VL as PR005329, other heavy chain entry
B15: PR005565AF (antibody, human IgG1, kappa)
heavy: not shown
light: DIVMTQSPLSLPVTLGQPASISCRSSKSLLHSNAKIYLYWFQQRPGQSPRLLIYRMSNLASGVPDRFSGSGSGTDFTLKISRVEAEDVGVYYCMQHLEYPLTFGQGTKLEIKRTVAAPSVFIFPPSDEQLKSGTASVVCLLNNFYPREAKVQWKVDNALQSGNSQESVTEQDSKDSTYSLSSTLTLSKADYEKHKVYACEVTHQGLSSPVTKSFNRGEC
modifications: afucosylated (AF) Fc glycan, produced with 2-fluoro peracetylated fucose
notes: also called PR005565F
B16: PR004331 (antibody, human IgG1, kappa, V domains shown)
VH: B7 VH with Q13K, Y32N, S49G, R89K, A90T
VL: B6 VL with A34G
notes: as for B7
B17: PR004340 (antibody, human IgG1, kappa, V domains shown)
VH: B6 VH
VL: B9 VL with L15P, Q17E, N26S, Q42L, R44K, R50Q
notes: as for B9
B18: PR004338 (antibody, human IgG1, kappa, V domains shown)
VH: B7 VH with R19K, P41S, S49G, R89K, A90T, F112Y
VL: B6 VL with A34G
notes: as for B7
B19: PR004339 (antibody, human IgG1, kappa, V domains shown)
VH: B6 VH
VL: B9 VL with L15P, Q17E, N26S, N35K, T36I, Q42L, R44K, R50Q
notes: as for B9
B20: PR006154 (antibody, human IgG1, kappa, V domains shown)
VH: B7 VH with Q13K, N30S, S49G, R89K, A90T, N104H
VL: B9 VL with N26S, G34A, N35K, T36I
B21: PR004325 (antibody, human IgG1, kappa, V domains shown)
VH: B6 VH
VL: B6 VL with N33Q, A34G
notes: as for B6
B22: PR004337 (antibody, human IgG1, kappa, V domains shown)
VH: B7 VH with R19K, Y32N, P41S, S49G, R89K, A90T
VL: B6 VL with A34G
notes: as for B7
B23: PR004330 (antibody, human IgG1, kappa, V domains shown)
VH: B7 VH with Q13K, S49G, R89K, A90T
VL: B6 VL with A34G
notes: as for B7
B24: PR004326 (antibody, human IgG1, kappa, V domains shown)
VH: B6 VH with G105A
VL: B6 VL with A34G
notes: as for B6
B25: PR004332 (antibody, human IgG1, kappa, V domains shown)
VH: B7 VH with Q13K, S49G, R89K, A90T, F112Y
VL: B6 VL with A34G
notes: as for B7
B26: PR004327 (antibody, human IgG1, kappa, V domains shown)
VH: B6 VH with N30Q
VL: B6 VL with A34G
notes: as for B6
B27: PR004328 (antibody, human IgG1, kappa, V domains shown)
VH: B6 VH with N30S
VL: B6 VL with A34G
notes: as for B6
B28: PR004329 (antibody, human IgG1, kappa, V domains shown)
VH: B6 VH with N104Q
VL: B6 VL with A34G
notes: as for B6
B29: PR005329 (antibody, human IgG1, kappa)
heavy: not shown
light: B2 light with T9P, L12P, Y31H, G69S, A75D, G105A, L111I
notes: as for B2

Tests used:
[1] = molecular target: T1, human CCR8 (human, UniProt P51685 1-355); assay: FACS, CHO-K1-hCCR8 cells
T1 construct: whole, on cells; construct used for the overexpressing cell lines is not described; also called hCCR8
Protocol: (§1) Cells overexpressing human CCR8 were digested with pancreatin, counted and resuspended to a cell density of 1E6 cells/mL. The cell suspension was added to a 96-well V-bottom plate at 100 μL/well and centrifuged at 300 g for 5 min, and the supernatant was discarded. The anti-CCR8 antibodies provided herein was used as a primary antibody and diluted in a 5-fold gradient with an FACS buffer (DPBS containing 2% FBS) from 200 nM. The diluted primary antibody was added at 100 μL/well to resuspend the cells, and the mixture was incubated at 4° C. for 1 h. The plate was washed twice with DPBS and centrifuged at 300×g for 5 min, and the supernatant was discarded. The secondary antibody diluted in a 1:1000 ratio with an FACS buffer was added at 100 μL/well to suspend the cells, and the mixture was incubated at 4° C. for 40 min. The plate was washed twice with DPBS and centrifuged at 300×g for 5 min, and the supernatant was discarded. DPBS was added at 200 μL/well to suspend the cells, and the mixture was loaded on an FACS machine for analysis.

[2] = molecular target: T2, cynomolgus monkey CCR8 (cynomolgus monkey, UniProt G7NYJ2 1-355); assay: FACS, CHO-K1-CynoCCR8 cells
T2 construct: whole, on cells; also called CynoCCR8
Protocol: as §1, with “cynomolgus monkey CCR8, CHO-K1-CynoCCR8,” for “human CCR8”

[3] = molecular target: T1, human CCR8; assay: FACS, CHO-K1-hCCR8 cells; remark: listed apart in the source
Protocol: as §1

[4] = molecular target: T2, cynomolgus monkey CCR8; assay: FACS, CHO-K1-CynoCCR8 cells; remark: listed apart in the source
Protocol: as §1, with “cynomolgus monkey CCR8, CHO-K1-CynoCCR8,” for “human CCR8”

T1 sequence (P51685 whole entry): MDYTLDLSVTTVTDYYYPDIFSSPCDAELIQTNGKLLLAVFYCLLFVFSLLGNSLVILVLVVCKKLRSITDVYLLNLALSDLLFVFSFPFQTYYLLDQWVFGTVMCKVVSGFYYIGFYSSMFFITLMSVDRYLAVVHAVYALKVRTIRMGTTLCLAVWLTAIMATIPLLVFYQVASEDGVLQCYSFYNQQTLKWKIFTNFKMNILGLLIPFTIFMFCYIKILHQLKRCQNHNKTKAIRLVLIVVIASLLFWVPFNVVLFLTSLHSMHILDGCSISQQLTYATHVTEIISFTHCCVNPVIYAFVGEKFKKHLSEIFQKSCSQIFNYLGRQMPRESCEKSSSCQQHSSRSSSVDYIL
T2 sequence (G7NYJ2 entry or part of it): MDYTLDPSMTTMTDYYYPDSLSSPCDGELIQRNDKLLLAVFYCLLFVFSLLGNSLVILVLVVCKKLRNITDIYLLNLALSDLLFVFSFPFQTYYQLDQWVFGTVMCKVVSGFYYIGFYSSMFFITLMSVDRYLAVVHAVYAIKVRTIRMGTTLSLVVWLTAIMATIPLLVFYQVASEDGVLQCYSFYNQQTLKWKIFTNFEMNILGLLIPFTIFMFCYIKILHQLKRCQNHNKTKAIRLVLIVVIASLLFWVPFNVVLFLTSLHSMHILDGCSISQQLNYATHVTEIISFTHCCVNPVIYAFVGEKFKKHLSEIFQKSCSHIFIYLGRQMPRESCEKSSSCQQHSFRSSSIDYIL

Row | Binder | EC50 [1] | EC50 [2] | EC50 [3] | EC50 [4]
1 | B1 | 0.47 nM |  |  | 
2 | B2 | 0.47 nM |  |  | 
3 | B3 | 0.52 nM |  |  | 
4 | B4 | 0.44 nM |  |  | 
5 | B5 | 0.37 nM |  |  | 
6 | B6 |  | 2.3 nM | 0.67 nM | 
7 | B7 |  | 4.97 nM | 0.91 nM | 
8 | B8 |  | 3.52 nM | 0.97 nM | 
9 | B9 |  | 5.96 nM | 1.12 nM | 
10 | B10 |  | 3.51 nM | 1 nM | 
11 | B11 |  | 6.38 nM | 1.08 nM | 
12 | B12 |  | 7.5 nM | 1.33 nM | 
13 | B13 |  | 3.33 nM | 0.79 nM | 
14 | B14 | 0.63 nM |  |  | 
15 | B15 | 0.38 nM |  |  | 0.62 nM
16 | B16 |  | 6.99 nM | 1.03 nM | 
17 | B17 |  | 5.35 nM | 1.06 nM | 
18 | B18 |  | 4.21 nM | 0.72 nM | 
19 | B19 |  | 9.58 nM | 0.95 nM | 
20 | B20 | 0.38 nM |  |  | 0.31 nM
21 | B21 |  | 3.89 nM | 1.31 nM | 
22 | B22 |  | 5.47 nM | 0.76 nM | 
23 | B23 |  | 3.96 nM | 0.85 nM | 
24 | B24 |  | 0.75 nM | 0.37 nM | 
25 | B25 |  | 2.75 nM | 0.73 nM | 
26 | B26 |  | 13.4 nM | 1.08 nM | 
27 | B27 |  | 6.05 nM | 1 nM | 
28 | B28 |  | 0.41 nM | 0.17 nM | 
29 | B29 | 0.49 nM |  |  | 
